Patent publication US20200164071A1 (GENSUN BIOPHARMA, published 2020)

What was measured:
[1] = molecular target: T1, human TIGIT (antigen of Table 3) (human, UniProt Q495A1 23-141, limits assumed); test: binding kinetics, method not described (Table 3, Binding Affinity)
T1 construct: neither the method nor the antigen construct is described; limits and tags unknown; also called hu TIGIT
T1 sequence: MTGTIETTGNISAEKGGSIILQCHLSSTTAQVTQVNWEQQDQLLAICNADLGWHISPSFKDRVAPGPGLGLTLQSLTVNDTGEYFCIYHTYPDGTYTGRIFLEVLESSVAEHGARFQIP

[2] = molecular target: T2, human TIGIT on CHO-K1 cells (human, UniProt Q495A1 23-244); test: flow cytometry competition with biotinylated hPVR-mIg on CHO-K1 cells expressing human TIGIT
T2 construct: also called hu TIGIT; TIGIT+CHO-K1 cells
T2 sequence: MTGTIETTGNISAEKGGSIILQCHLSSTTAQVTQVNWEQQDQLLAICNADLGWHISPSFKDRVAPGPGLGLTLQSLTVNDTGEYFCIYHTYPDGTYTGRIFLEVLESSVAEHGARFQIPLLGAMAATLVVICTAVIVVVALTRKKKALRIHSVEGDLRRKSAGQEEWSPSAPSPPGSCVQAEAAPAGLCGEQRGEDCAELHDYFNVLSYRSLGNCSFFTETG
Procedure: (§1) The cells were washed 2 times before staining with PE streptavidin (BioLegend) for 20 min at 4 C. The cells were then washed, resuspended in 30 μl 7 AAD solution, and 35 μl of 10% neutral buffered formalin solution was added. The cells were then incubated for 15 min. Flow cytometry was performed and IC50 was calculated using iQue intellicyt system.

[3] = molecular target: T2, human TIGIT on CHO-K1 cells; test: flow cytometry, CHO-K1 cells expressing full-length human TIGIT, PE F(ab')2 goat anti-human IgG Fc (Example 5)
Procedure: (§2) The mixtures were incubated at 4 C for 20 min and washed 3 times. The mixtures were stained with the secondary antibody, PE labeled F(ab′)2-Goat anti-human IgG Fc (Thermo H10104) at 4° C. for 20 min. Cells were washed and resuspended in 7AAD solution and fixed in 10% neutral buffered formalin solution for 15 minutes before analysis with the iQue Intellicyt system.

[4] = molecular target: T2, human TIGIT on CHO-K1 cells; test: flow cytometry blocking assay: biotinylated hPVR-mIg on human TIGIT CHO-K1 cells, PE streptavidin (Examples 4 and 6)
Procedure: as §1

[5] = molecular target: T2, human TIGIT on CHO-K1 cells; test: flow cytometry competition assay: PVR (CD155) signal on human TIGIT CHO-K1 cells against titrated antibody (Example 3 names human PVR-human Fc, m15, with PE anti-human Fc)
Excerpt: Cells were then washed with FACS buffer and then re-suspended in 7-amino-actinomycin D (7AAD) solution before analysis with iQue intellicyt system.

[6] = molecular target: T3, cyno TIGIT on CHO-K1 cells (cyno, UniProt A0A7N9I9V4 89-312); test: flow cytometry, CHO-K1 cells expressing cyno TIGIT (binding assay of Example 5)
T3 construct: whole, on cells; also called cyno-hu TIGIT
Procedure: as §2

[7] = molecular target: T2, human TIGIT on CHO-K1 cells; test: flow cytometry, CHO-K1 cells expressing human TIGIT (binding assay of Example 5)
Procedure: as §2

[8] = molecular target: T3, cyno TIGIT on CHO-K1 cells; test: flow cytometry blocking assay of Example 4: biotinylated hPVR-mIg on cyno TIGIT CHO-K1 cells
[9] = molecular target: T2, human TIGIT on CHO-K1 cells; test: flow cytometry blocking assay of Example 4: biotinylated hPVR-mIg on human TIGIT CHO-K1 cells
[10] = molecular target: T4, human PD-1 on CHO-K1 cells (human, UniProt Q15116 25-288); test: flow cytometry blocking assay: FITC human PD-L1-Fc on human PD-1 CHO-K1 cells (Example 11)
T4 construct: also called Human PD-1 transfected CHO-K1 cells
Procedure: (§3) Human or Cyno PD-1 transfected CHO-K1 cells were washed with FACS buffer (0.5% BSA 2 mM EDTA in PBS) and re-suspended at a concentration of 10⁶ cells/ml. […] The cells were then washed and re-suspended in 30 μl 7 AAD solution; 35 μl 10% neutral buffered formalin solution was then added and incubated for 15 mins. before analysis using the iQue intellicyt system.

[11] = molecular target: T4, human PD-1 on CHO-K1 cells; test: flow cytometry blocking assay: FITC human PD-L1-Fc on human PD-1 CHO-K1 cells (Examples 11 and 16); title: Blocking PD-L1 binding to PD-1
Procedure: as §3

[12] = molecular target: T4, human PD-1 on CHO-K1 cells; test: flow cytometry blocking assay: FITC human PD-L1-Fc on human PD-1 CHO-K1 cells (Examples 11 and 15); title: PD-1 Blocking Activity Screening
Procedure: as §3

[13] = molecular target: T5, His tagged human PD-1 protein (human, UniProt Q15116 25-170, limits assumed); test: bio-layer interferometry (Octet RED96), antibody on anti-human IgG capture biosensors, His tagged human PD-1 as analyte, 1:1 global fit (Example 12)
T5 construct: also called huPD-1-His; not shown: His tag
Procedure: […] was carried out using the Octet RED96 system (ForteBio Octet RED96 System) to characterize the binding kinetics of antibodies against His tagged human PD-1 protein. 20 nM of antibody was loaded onto the anti-human IgG capture biosensors. Association of analyte (His tagged human PD-1 protein) was observed by placing the biosensors in wells containing 2 or 3 fold serial dilution of analytes (72 nM being the highest concentration) for 5 mins. Dissociation was measured after transfer of the biosensors into kinetic buffer alone and monitoring of the interferometry signal for 10 minutes. The observed on and off rates (Ka and Kd) were fit using a 1:1 binding global fit model comprising at least 5 concentrations tested, and the equilibrium binding constant KD was then calculated.

[14] = molecular target: T4, human PD-1 on CHO-K1 cells; test: flow cytometry blocking assay: FITC human PD-L1-Fc on human PD-1 CHO-K1 cells (Example 11; the legend paragraph 42 calls it binding to hu PD-L1)
Procedure: as §3

[15] = molecular target: T4, human PD-1 on CHO-K1 cells; test: flow cytometry blocking assay: FITC human PD-L1-Fc on human PD-1 CHO-K1 cells (Example 11); axis: % of PD-L1 Binding Signal; first of two legend entries printed PD-05 Human
Procedure: as §3

[16] = molecular target: T6, cyno PD-1 on CHO-K1 cells (cyno); test: flow cytometry blocking assay of Example 11, PD-L1 on cyno PD-1 CHO-K1 cells; cyno taken from the legend paragraph 42 ('cyno-hu'), while Example 11 speaks of human PD-1 and human PD-L1 for this figure
T6 construct: whole, on cells; also called cyno hu PD-1; Cyno PD-1 transfected CHO-K1 cells
Procedure: as §3

T4 sequence (Q15116 25-288): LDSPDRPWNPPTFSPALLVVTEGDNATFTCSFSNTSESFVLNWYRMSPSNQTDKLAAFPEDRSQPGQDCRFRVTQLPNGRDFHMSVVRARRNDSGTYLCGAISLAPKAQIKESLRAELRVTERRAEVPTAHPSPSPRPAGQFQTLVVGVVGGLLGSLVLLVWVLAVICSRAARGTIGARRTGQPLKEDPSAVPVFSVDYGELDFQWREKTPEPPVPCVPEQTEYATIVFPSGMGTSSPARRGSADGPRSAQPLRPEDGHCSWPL
T5 sequence (Q15116 25-170 limits assumed): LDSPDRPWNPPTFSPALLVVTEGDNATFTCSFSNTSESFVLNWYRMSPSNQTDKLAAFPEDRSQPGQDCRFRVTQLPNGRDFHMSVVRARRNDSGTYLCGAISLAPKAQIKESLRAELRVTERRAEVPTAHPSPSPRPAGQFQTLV
T3 sequence (A0A7N9I9V4 entry or part of it): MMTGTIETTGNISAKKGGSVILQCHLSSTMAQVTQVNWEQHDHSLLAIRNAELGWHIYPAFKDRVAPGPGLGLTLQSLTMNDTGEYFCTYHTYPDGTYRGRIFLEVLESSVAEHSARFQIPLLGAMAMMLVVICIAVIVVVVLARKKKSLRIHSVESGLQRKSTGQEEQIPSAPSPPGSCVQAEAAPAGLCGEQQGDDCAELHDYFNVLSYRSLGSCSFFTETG

B1: T-04 (antibody, V domains shown)
VH: EVQLVQSGAEVKKPGATVKISCKVSGYTFTDHTIHWVQQAPGKGLEWMGYIYPRDGSSKYNVKFKGRVTITADTSTDTAYMELSSLRSEDTAVYYCATGMLRWFAYWGQGTLVTVSS
VL: DIQMTQSPSSLSASVGDRVTITCKASQDVFTAVAWYQQKPGKAPKLLIYSASYRYTGVPSRFSGSGSGTDFTFTISSLQPEDIATYYCQQHYSIPLTFGAGTKLEIK
notes: Anti-human TIGIT monoclonal antibody from mouse hybridoma; also called anti-hu TIGIT mab T-04
**Q.** What does the source list for B1?
**A.** Kd [1]: 0.67 nM; koff [1]: 0.000538 s⁻¹; kon [1]: 809000 M⁻¹ s⁻¹; IC50 [2]: 0.12 to 0.31 nM; EC50 [3]: 0.23 nM; IC50 (read off the curve) [4]: ~0.4 nM; IC50 (read off the curve) [5]: ~0.3 nM

B2: T-08 (antibody, V domains shown)
VH: QVQLVQSGSELKKPGASVKVSCKASGYTFTNYGMNWVRQAPGQGLEWMGWINTYTGEPTYADDFKGRFVFSLDTSVSTAYLQISSLKAEDTAVYYCARAPPYGYDVRFAYWGQGTLVTVSS
VL: DVVMTQSPLSLPVTLGQPASISCRSSQSIVHSNGNTYLEWFQQRPGQSPRVLIYKVSDRFSGVPDRFSGSGSGTDFTLKISRVEAEDVGVYYCFQGSHVPWTFGRGTKLEIK
notes: Anti-human TIGIT monoclonal antibody from mouse hybridoma; also called anti-hu TIGIT mab T-08; anti-TIGIT (T-08)
**Q.** How did the Kd [1] turn out when B2 was run?
**A.** Its Kd is 5.44 nM.

**Q.** What about the koff [1] of the same binder?
**A.** The koff was 0.00376 s⁻¹.

**Q.** And the kon [1]?
**A.** Its kon is 690000 M⁻¹ s⁻¹.

**Q.** And the “EC50 (read off the curve)” value [6]?
**A.** Its value is about 1 nM.

**Q.** And the “EC50 (read off the curve)” value [7]?
**A.** Its value is about 0.5 nM.

**Q.** And the IC50 [2]?
**A.** The IC50 was 0.4 to 1.67 nM.

**Q.** What about the “IC50 (read off the curve)” value [8] of the same binder?
**A.** The value was about 1 nM.

**Q.** And the “IC50 (read off the curve)” value [9]?
**A.** Its value is about 1 nM.

**Q.** What about the EC50 [3] of the same binder?
**A.** Its EC50 is 0.4 nM.

**Q.** And the IC50 [4]?
**A.** Its IC50 is 1.2 nM.

B3: PD-01 mab (antibody, V domains shown)
VH: EVQLVESGGGLVQPGGSLRLSCAASGFTFSNFLMSWVRQAPGKGLEWVSTISGGGRDTYYVDSVKGRFTISRDNSKNTLYLQMNSLRAEDTAVYYCAKRTTYSMDYWGQGTSVTVSS
VL: DIQMTQSPSSVSASVGDRVTITCLASQTIGTWLAWYQQKPGKAPKLLIYAATSLADGVPSRFSGSGSGTDFTLTISSLQPEDFATYYCQQFYSIPWTFGGGTKLEIK
notes: also called anti-PD-1 (PD-01)
**Q.** What does the source list for B3?
**A.** IC50 [10]: 2.28 nM; IC50 [11]: 1.5 nM; IC50 (read off the curve) [12]: ~1 nM; Kd [13]: 2.2 nM; koff [13]: 0.000272 s⁻¹; kon [13]: 126000 M⁻¹ s⁻¹

B4: PD-05 (antibody, V domains shown)
VH: QVQLVQSGAEVKKPGASVKVSCKASGYTFTTYYIYWVRQAPGQGLEWMGGINPGNGGTNFNEKFKIRVTMTRDTSISTAYMELSSLRSEDTAVYYCARRYHGYDGGLDYWGQGTLVTVSS
VL: DIVLTQSPASLAVSPGQRATITCRASKSVSTSGFSYIHWYQQKPGQPPKLLIYLASNLESGVPARFSGSGSGTDFTLTINPVEANDTANYYCQHTWELPNTFGGGTKVEIK
notes: also called anti-PD-1 mab PD-05
**Q.** With B4 as the binder, how does the IC50 [14] read?
**A.** The IC50 was 0.56 nM.

**Q.** And the IC50 [15]?
**A.** The IC50 was 0.56 nM.

**Q.** What about the IC50 [16] of the same binder?
**A.** Its IC50 is 1.6 nM.
